Assay [1] has as its target taxol-stabilized microtubules (porcine brain tubulin) (porcine). The experiment in a line: TIRF microscopy binding assay (fluorescence intensity on filaments); fluorescent MAP1B constructs in solution on taxol-stabilized microtubules held on the coverslip; titrations for KD (KD of the LC called apparent); 10 nM on WT and subtilisin-digested microtubules in the same chamber; 90 mM Hepes pH 7.4, 150 mM K-acetate, 2 mM Mg-acetate, 1 mM EGTA, 10% glycerol, 10 uM taxol.

The target is the same in assay [2]. Put plainly: TIRF microscopy binding assay (fluorescence intensity on filaments); 50 nM bacterially expressed HC^1-1500 on microtubules after incubation with DYRK1a with or without ATP (37 C, 30 min).
Assay [3] addresses actin filaments (rabbit skeletal muscle actin) (rabbit) (UniProt P68135). The experiment in a line: TIRF microscopy binding assay (fluorescence intensity on filaments); 50 nM bacterially expressed HC^1-1500 on actin filaments after incubation with DYRK1a with or without ATP (37 C, 30 min).
Assay [4] has as its target tubulin (taxol-stabilized microtubules). The experiment in a line: TIRF intensity of HC on microtubules. As to conditions: reference: HC1-1500 + DYRK1a without ATP.
A further assay deals with actin (filaments) (UniProt P68135). The experiment in a line: TIRF intensity of HC on actin filaments. The note with it: reference: HC1-1500 + DYRK1a without ATP.
The target of assay [5] is subtilisin-digested microtubules (porcine brain tubulin without the C-terminal tails) (porcine). Put plainly: TIRF microscopy binding assay (fluorescence intensity on filaments); fluorescent MAP1B constructs in solution on taxol-stabilized microtubules held on the coverslip; titrations for KD (KD of the LC called apparent); 10 nM on WT and subtilisin-digested microtubules in the same chamber; 90 mM Hepes pH 7.4, 150 mM K-acetate, 2 mM Mg-acetate, 1 mM EGTA, 10% glycerol, 10 uM taxol.

Assay [6] has as its target taxol-stabilized microtubules (porcine brain tubulin) (porcine).

As to “sfGFP-MAP1B HC^1-1103 (from UniProt P14873 1-1103) (domain or fragment)”, the Kd in assay [1] came out at 1.1 nM.

Regarding “MAP1B HC^1-2202-sfGFP (full-length MAP1B heavy chain) (from UniProt P14873 1-2202) (domain or fragment)”, in assay [1], the Kd is 3.8 nM.

Substance “sfGFP-MAP1B HC^1-1500, bacterially expressed, phosphorylated by DYRK1a (from UniProt P14873 1-1500) (domain or fragment)” had a percent reduction of fluorescence intensity on microtubules against the sample without ATP in assay [2] of 21%. This substance also came in with a percent reduction of fluorescence intensity on actin filaments against the sample without ATP in assay [3] of 75%.

Turning to “sfGFP-MAP1B HC^1-532 (from UniProt P14873 1-532) (domain or fragment)”, in assay [1], the Kd stood at 185 nM.

On to “MAP1B (heavy chain HC, light chain LC/LC1) HC 1-1500 (from UniProt P14873) HC1-1500 + DYRK1a with ATP”, for which the values for the other: percent reduction (in assay [4]; in the assay with actin (filaments)) were 21% and 75%, respectively.

Regarding “sfGFP-MAP1B HC^1-1500, bacterially expressed (from UniProt P14873 1-1500) (domain or fragment)”, the percent decrease of fluorescence intensity against WT microtubules in assay [5] worked out at 45%. In addition, in assay [1], the Kd was 1.8 nM.

With “TMR-spastin (truncated human spastin, delta227) (from UniProt Q9UBP0 1-616) (enzyme)”, in assay [6], the reduction of microtubule fluorescence intensity after 10 min with spastin (severing) in the presence of 10 nM LC-sfGFP; 82% with spastin alone came out at 19% and the reduction of microtubule fluorescence intensity after 10 min with spastin (severing) in the presence of 50 nM sfGFP-HC^1-1500; 82% with spastin alone was 60%.

As for “MAP1B LC 2203-2464-sfGFP (from UniProt P14873 2203-2464) (domain or fragment)”, the percent decrease of fluorescence intensity against WT microtubules in assay [5] worked out at 87%. Moreover, the Kd in assay [1] was 1.5 nM.

Turning to “MAP1B HC MTBD^639-767 (from UniProt P14873 639-767) (domain or fragment)”, the Kd in assay [1] is 13.6 nM.

For the origin of these results see paper PMC11530598.
